Here are results for 22 molecules from US20160137696A1 (Bristol-Myers Squibb, published 2016).

For orientation: IC50 means the concentration that gives 50% inhibition.

The target in test [1] is T1, Recombinant Human PD-L1-TVMV-His (human, UniProt Q9NZQ7 19-239).
T1 construct: expressed in HEK293T cells; also called PD-L1-His; hPD-L1(19-239)-TVMV-His
In words: HTRF vs PD-1-Ig; A = IC50 0.10-1.6 µM. The protocol:
(§1) Homogenous Time-Resolved Fluorescence (HTRF) Assays of Binding of Soluble PD-1 to Soluble PD-L1. Soluble PD-1 and soluble PD-L1 refers to proteins with carboxyl-end truncations that remove the transmembrane-spanning regions and are fused to heterologous sequences, specifically the Fc portion of the human immunoglobuling G sequence (Ig) or the hexahistidine epitope tag (His). All binding studies were performed in an HTRF assay buffer consisting of dPBS supplemented with 0.1% (w/v) bovine serum albumin and 0.05% (v/v) Tween-20. For the PD-1-Ig/PD-L1-His binding assay, inhibitors were pre-incubated with PD-L1-His (10 nM final) for 15 m in 4 μl of assay buffer, followed by addition of PD-1-Ig (20 nM final) in 1 μl of assay buffer and further incubation for 15 m. PD-L1 fusion proteins from either human, cynomologous macaques, mouse, or other species were used. HTRF detection was achieved using europium crypate-labeled anti-Ig monoclonal antibody (1 nM final) and allophycocyanin (APC) labeled anti-His monoclonal antibody (20 nM final). Antibodies were diluted in HTRF detection buffer and 5 μl was dispensed on top of binding reaction. The reaction was allowed to equilibrate for 30 minutes and signal (665 nm/620 nm ratio) was obtained using an EnVision fluorometer. Additional binding assays were established between PD-I-Ig/PD-L2-His (20 and 5 nM, respectively), CD80-His/PD-L1-Ig (100 and 10 nM, respectively) and CD80-His/CTLA4-Ig (10 and 5 nM, respectively). Binding/competition studies between biotinylated Compound No. 71 and human PD-L1-His were performed as follows. Macrocyclic peptide inhibitors were pre-incubated with PD-L1-His (10 nM final) for 60 minutes in 4 μl of assay buffer followed by addition of biotinylated Compound No. 71 (0.5 nM final) in 1 μl of assay buffer. Binding was allowed to equilibrate for 30 minutes followed by addition of europium crypated labeled Streptavidin (2.5 pM final) and APC-labeled anti-His (20 nM final) in 5 μl of HTRF buffer. The reaction was allowed to equilibrate for 30 m and signal (665 nm/620 nm ratio) was obtained using an EnVision fluorometer.
In general terms: TR-FRET usually uses a lanthanide donor and a delayed reading to cut background.

In test [2] the target is T1, Recombinant Human PD-L1-TVMV-His. In words: HTRF vs PD-1-Ig; C = IC50 0.0003-0.0099 µM. The protocol:
as §1

Starred links: 1 amine or outer side, 2 acyl side, 3 side chain; linkers in the order of their positions; H or OH if unused. Positions of bridges follow the written chain, without caps; N, C: chain ends. Non-standard residues stand in square brackets, D forms with d. Groups on a side chain read outwards from the residue. Primed or numbered codes have the meaning given here. No end group written: not given here. *: point of attachment. PEG8′ = PEG8 unit (23-azido-3,6,9,12,15,18,21-heptaoxatricosyl, i.e. an eight-unit PEG spacer) linking the triazole to vitamin E succinate; Pra′ = propargylglycine (built in as LPH), clicked to a 1-substituted triazol-4-yl-alanine, O=C([C@H](Cc1cn([*:3])nn1)N[*:1])[*:2]; PEG11′ = PEG11 spacer (eleven ethylene glycol units, 3,6,...,33-undecaoxa) between the triazole and gamma-Glu-C18 diacid; PEG6′ = PEG6 spacer (17-azido-3,6,9,12,15-pentaoxaheptadecyl) linking the triazole to vitamin E succinate; X1 = (S)‑3‑carboxy‑3‑(15-carboxypentadecanoylamino)propyl, O=C(O)CCCCCCCCCCCCCCC(=O)N[C@@H](CC*)C(=O)O; Pra″ = its azide, alkyne or alkene has reacted where a group follows in round brackets; Pra(3) = propargylglycine, clicked to an azide to give a triazolyl-alanine; triazole = 1,2,3-triazole formed by click of the Pra alkyne with the azide; Trp(1-CH2CO) = O=C([C@H](Cc1cn(CC(=O)[*:3])c2ccccc12)N[*:1])[*:2]; Phe(3,4,5-F3) = N[C@@H](Cc1cc(F)c(F)c(F)c1)C(=O)O; C18 diacid = O=C(O)CCCCCCCCCCCCCCCCC(=O)*; γGlu = O=C(O)[C@H](CCC(=O)[*:2])N[*:1]; Aha = [N-]=[N+]=NCC[C@H](N)C(=O)O; Hyp = O=C(O)[C@@H]1C[C@@H](O)CN1; NMeF = CN[C@@H](Cc1ccccc1)C(=O)O; F3Phe = trifluoro-phenylalanine; NMeE = CN[C@@H](CCC(=O)O)C(=O)O; NMeNle = CCCC[C@H](NC)C(=O)O; Suc = O=C(CCC(=O)[*:2])[*:1]; triazole″ = not defined here; Bzt = benzothienylalanine; NMeA = CN[C@@H](C)C(=O)O; Orn = NCCC[C@H](N)C(=O)O; Pra = C#CC[C@H](N)C(=O)O; Dap = NC[C@H](N)C(=O)O; Sar = CNCC(=O)O

T1 sequence (Q9NZQ7 other isoform, or with tags, fused parts or gaps limits assumed): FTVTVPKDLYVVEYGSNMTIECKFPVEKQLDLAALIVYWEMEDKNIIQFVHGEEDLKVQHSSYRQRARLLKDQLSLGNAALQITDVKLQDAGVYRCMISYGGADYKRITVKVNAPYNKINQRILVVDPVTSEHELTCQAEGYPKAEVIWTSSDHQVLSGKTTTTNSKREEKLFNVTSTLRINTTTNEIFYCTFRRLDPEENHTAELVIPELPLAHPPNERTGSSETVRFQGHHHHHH

B1: Example 14054 (peptide)
peptide: YADPHQPWSWXXECGXG
modifications: as m108 (INT 1400C); Pra triazole-linked to vitamin E succinate 5-azidopentylamide
For B1, the IC50 in test [1] was 100 to 1600 nM.

B2: Example 3619 (peptide)
peptide: {CH2CO}-F[NMeF][NMeNle][Sar]DV[NMeF]Y[NMeE]WYLCGGGK-NH2
modifications: thioether N-13
SMILES: CCCC[C@H]1C(=O)N(C)CC(=O)N[C@@H](CC(=O)O)C(=O)N[C@@H](C(C)C)C(=O)N(C)[C@@H](Cc2ccccc2)C(=O)N[C@@H](Cc2ccc(O)cc2)C(=O)N(C)[C@@H](CCC(=O)O)C(=O)N[C@@H](Cc2c[nH]c3ccccc23)C(=O)N[C@@H](Cc2ccc(O)cc2)C(=O)N[C@@H](CC(C)C)C(=O)N[C@H](C(=O)NCC(=O)NCC(=O)NCC(=O)N[C@@H](CCCCN)C(N)=O)CSCC(=O)N[C@@H](Cc2ccccc2)C(=O)N(C)[C@@H](Cc2ccccc2)C(=O)N1C
notes: order read from the list of couplings, which runs from C- to N-terminus
For the molecule B2, in test [2], the IC50 fell in the range of 0.3 to 9.9 nM.

B3: Example 3214 (peptide)
peptide: {CH2CO}-[Phe(3,4,5-F3)][NMeF][NMeNle]PDV[NMeF]Y[NMeE]WYLCGGGK-NH2
modifications: thioether N-13; not fully specified (residue 4); printed as ClAc-Phe(3,4,5-tri-F)-[N-Me]Phe-[N-Me]Nle-cis-(D)-Pro(4-OH)-Asp-Val-[N-Me]Phe-Tyr-[N-Me]Glu-Trp-Tyr-Leu-Cys-Gly-Gly-Gly-Lys
notes: as for B2
With B3, the IC50 in test [2] was 0.3 to 9.9 nM.

B4: Example 14092 (peptide)
peptide: {CH2CO}-Y[NMeA]DPHK[Hyp]WK[Trp(1-CH2CO)][NMeNle][NMeNle]ECG[Pra″]([triazole-PEG11′-γGlu-C18 diacid])
modifications: thioether N-14
As for B4, the IC50 in test [2] is 0.3 to 9.9 nM.

B5: Example 14064 (peptide)
peptide: {CH2CO}-Y[NMeA]DPHK[Hyp]WKW[NMeNle][NMeNle]ECG[Pra(3)]G
modifications: thioether N-14; not fully specified (residue 16, C-terminus)
B5: in test [2], the IC50 lay in the range of 0.3 to 9.9 nM.

B6: Example 14066 (peptide)
peptide: {CH2CO}-Y[NMeA]NP[Dap]L[Hyp]WSW[NMeNle][NMeNle]RCG[Pra′]([triazole-X1])
modifications: thioether N-14
For the molecule B6, the IC50 in test [2] lay within 0.3 to 9.9 nM.

B7: INT-1400G (peptide)
peptide: {CH2CO}-Y[NMeA]NP[Dap]L[Hyp]WSW[NMeNle][NMeNle]RCG[Pra]
modifications: thioether N-14; not fully specified (C-terminus); printed as ClAc-Tyr-mAla-Asn-Pro-Dap-Leu-Hyp-Trp-Ser-Trp-mNle-mNle-Arg-Cys-Gly-[(S)-propargylglycine]
notes: also called Intermediate 1400G
For the molecule B7, the IC50 in test [2] lay in the range of 0.3 to 9.9 nM.

B8: INT-1400A (peptide)
peptide: {CH2CO}-Y[NMeA]DPHK[Hyp]WKW[NMeNle][NMeNle]ECG[Pra]G
modifications: thioether N-14; not fully specified (C-terminus); printed as ClAc-Tyr-mAla-Asp-Pro-His-Lys-Hyp-Trp-Lys-Trp-mNle-mNle-Glu-Cys-Gly-[(S)-propargylglycine]-Gly
notes: also called Intermediate 1400A
With B8, in test [2], the IC50 was 0.3 to 9.9 nM.

B9: Example 14056 (peptide)
peptide: YADPHKPWKWXXECGXD
modifications: as m107 (INT 1400B); Pra triazole-linked to vitamin E succinate 5-azidopentylamide
On to B9, for which the IC50 in test [1] lay in the range of 100 to 1600 nM.

B10: INT-1400B (peptide)
peptide: {CH2CO}-Y[NMeA]DPHK[Hyp]WKW[NMeNle][NMeNle]ECG[Pra]D
modifications: thioether N-14; not fully specified (C-terminus); printed as ClAc-Tyr-mAla-Asp-Pro-His-Lys-Hyp-Trp-Lys-Trp-mNle-mNle-Glu-Cys-Gly-[(S)-propargylglycine]-Asp
notes: also called Intermediate 1400B
As to B10, the IC50 in test [2] was 0.3 to 9.9 nM.

B11: Example 14057 (peptide)
peptide: {CH2CO}-Y[NMeA]DPHK[Hyp]WKW[NMeNle][NMeNle]ECG[Pra(3)]([triazole″-PEG8′-Suc-vitamin E])D
modifications: thioether N-14; reading uncertain
B11: in test [1], the IC50 was 100 to 1600 nM.

B12: INT-1400E (peptide)
peptide: {CH2CO}-Y[NMeA]DPHK[Hyp]WK[Trp(1-CH2CO)][NMeNle][NMeNle]ECG[Pra]D
modifications: thioether N-14; not fully specified (C-terminus); printed as ClAc-Tyr-mAla-Asp-Pro-His-Lys-Hyp-Trp-Lys-“Trp”-mNle-mNle-Glu-Cys-Gly-[(S)-propargylglycine]-Asp
notes: also called Intermediate 1400E
With B12, in test [2], the IC50 was 0.3 to 9.9 nM.

B13: INT-1400C (peptide)
peptide: {CH2CO}-Y[NMeA]DPHQ[Hyp]WSW[NMeNle][NMeNle]ECG[Pra]G
modifications: thioether N-14; not fully specified (C-terminus); printed as ClAc-Tyr-mAla-Asp-Pro-His-Gln-Hyp-Trp-Ser-Trp-mNle-mNle-Glu-Cys-Gly-[(S)-propargylglycine]-Gly
notes: also called Intermediate 1400C
For the molecule B13, in test [2], the IC50 was in the range of 0.3 to 9.9 nM.

B14: INT-1300C (peptide)
peptide: {CH2CO}-Y[NMeA]NP[Dap]L[Hyp]WS[Bzt][NMeNle][NMeNle]RCGG[Aha]
modifications: thioether N-14
For B14, in test [2], the IC50 lay in the range of 0.3 to 9.9 nM.

B15: INT-1400D (peptide)
peptide: {CH2CO}-Y[NMeA]DPHK[Hyp]WK[Trp(1-CH2CO)][NMeNle][NMeNle]ECG[Pra]G
modifications: thioether N-14; not fully specified (C-terminus); printed as ClAc-Tyr-mAla-Asp-Pro-His-Lys-Hyp-Trp-Lys-“Trp”-mNle-mNle-Glu-Cys-Gly-[(S)-propargylglycine]-Gly
As to B15, the IC50 in test [2] fell in the range of 0.3 to 9.9 nM.

B16: INT-1400H (peptide)
peptide: {CH2CO}-Y[NMeA]DPHQ[Hyp]WSW[NMeNle][NMeNle]ECG[Pra]
modifications: thioether N-14; not fully specified (C-terminus); printed as ClAc-Tyr-mAla-Asp-Pro-His-Gln-Hyp-Trp-Ser-Trp-mNle-mNle-Glu-Cys-Gly-[(S)-propargylglycine]
notes: also called Intermediate 1400H
As for B16, the IC50 in test [2] lay within 0.3 to 9.9 nM.

B17: Example 14051 (peptide)
peptide: YADPHKPWKWXXECGXG
modifications: as m106 (INT 1400A); Pra triazole-linked to vitamin E succinate 5-azidopentylamide
B17: the IC50 in test [1] lay within 100 to 1600 nM.

B18: INT-1300Y (peptide)
peptide: {CH2CO}-Y[NMeA]DPHK[Hyp]WK[Trp(1-CH2CO)][NMeNle][NMeNle]ECG[Pra]-OH
modifications: thioether N-14
SMILES: C#CC[C@H](NC(=O)CNC(=O)[C@@H]1CSCC(=O)N[C@@H](Cc2ccc(O)cc2)C(=O)N(C)[C@@H](C)C(=O)N[C@@H](CC(=O)O)C(=O)N2CCC[C@H]2C(=O)N[C@@H](Cc2c[nH]cn2)C(=O)N[C@@H](CCCCN)C(=O)N2C[C@H](O)C[C@H]2C(=O)N[C@@H](Cc2c[nH]c3ccccc23)C(=O)N[C@@H](CCCCN)C(=O)N[C@@H](Cc2cn(CC(=O)O)c3ccccc23)C(=O)N(C)[C@@H](CCCC)C(=O)N(C)[C@@H](CCCC)C(=O)N[C@@H](CCC(=O)O)C(=O)N1)C(=O)O
notes: also called Intermediate 1300Y
For B18, the IC50 in test [2] lay in the range of 0.3 to 9.9 nM.

B19: Example 14053 (peptide)
peptide: {CH2CO}-Y[NMeA]DPHK[Hyp]WKW[NMeNle][NMeNle]ECG[Pra(3)]([triazole″-PEG6′-Suc-vitamin E])G
modifications: thioether N-14; reading uncertain
As for B19, the IC50 in test [1] fell in the range of 100 to 1600 nM.

B20: INT-1400F (peptide)
peptide: {CH2CO}-Y[NMeA]DPHK[Hyp]WKW[NMeNle][NMeNle]ECG[Pra]
modifications: thioether N-14; not fully specified (C-terminus); printed as ClAc-Tyr-mAla-Asp-Pro-His-Lys-Hyp-Trp-Lys-Trp-mNle-mNle-Glu-Cys-Gly-[(S)-propargylglycine]
notes: also called Intermediate 1400F
With B20, in test [2], the IC50 lay within 0.3 to 9.9 nM.

B21: Example 14058 (peptide)
peptide: {CH2CO}-Y[NMeA]NP[Dap]L[Hyp]WS[Bzt][NMeNle][NMeNle]RCG[Pra]
modifications: thioether N-14; not fully specified (residue 16)
For the molecule B21, the IC50 in test [1] lay within 100 to 1600 nM.

B22: INT-1400K (peptide)
peptide: {CH2CO}-[F3Phe][NMeF][NMeNle][dP]DV[NMeF][Orn][dP]WYLCG[Pra]
modifications: thioether N-13; not fully specified (C-terminus); printed as ClAc-F3Phe-mPhe-mNle-dPro-Asp-Val-mPhe-Orn-dPro-Trp-Tyr-Leu-Cys-Gly-[(S)-propargylglycine]
notes: also called Intermediate 1400K
In the case of B22, the IC50 in test [2] was 0.3 to 9.9 nM.
